Non-standard residues stand in square brackets, D forms with d. No end group written: not given here.
B1: fibrinogen (ligand)
chain 1: ADSGEGDFLAEGGGVRGPRVVERHQSACKDSDWPFCSDEDWNYKCPSGCRMKGLIDEVNQDFTNRINKLKNSLFEYQKNNKDSHSLTTNIMEILRGDFSSANNRDNTYNRVSEDLRSRIEVLKRKVIEKVQHIQLLQKNVRAQLVDMKRLEVDIDIKIRSCRGSCSRALAREVDLKDYEDQQKQLEQVIAKDLLPSRDRQHLPLIKMKPVPDLVPGNFKSQLQKVPPEWKALTDMPQMRMELERPGGNEITRGGSTSYGTGSETESPRNPSSAGSWNSGSSGPGSTGNRNPGSSGTGGTATWKPGSSGPGSTGSWNSGSSGTGSTGNQNPGSPRPGSTGTWNPGSSERGSAGHWTSESSVSGSTGQWHSESGSFRPDSPGSGNARPNNPDWGTFEEVSGNVSPGTRREYHTEKLVTSKGDKELRTGKEKVTSGSTTTTRRSCSKTVTKTVIGPDGHKEVTKEVVTSEDGSDCPEAMDLGTLSGIGTLDGFRHRHPDEAAFFDTASTGKTFPGFFSPMLGEFVSETESRGSESGIFTNTKESSSHHPGIAEFPSRGKSSSYSKQFTSSTSYNRGDSTFESKSYKMADEAGSEADHEGTHSTKRGHAKSRPV
chain 2: QGVNDNEEGFFSARGHRPLDKKREEAPSLRPAPPPISGGGYRARPAKAAATQKKVERKAPDAGGCLHADPDLGVLCPTGCQLQEALLQQERPIRNSVDELNNNVEAVSQTSSSSFQYMYLLKDLWQKRQKQVKDNENVVNEYSSELEKHQLYIDETVNSNIPTNLRVLRSILENLRSKIQKLESDVSAQMEYCRTPCTVSCNIPVVSGKECEEIIRKGGETSEMYLIQPDSSVKPYRVYCDMNTENGGWTVIQNRQDGSVDFGRKWDPYKQGFGNVATNTDGKNYCGLPGEYWLGNDKISQLTRMGPTELLIEMEDWKGDKVKAHYGGFTVQNEANKYQISVNKYRGTAGNALMDGASQLMGENRTMTIHNGMFFSTYDRDNDGWLTSDPRKQCSKEDGGGWWYNRCHAANPNGRYYWGGQYTWDMAKHGTDDGVVWMNWKGSWYSMRKMSMKIRPFFPQQ
chain 3: YVATRDNCCILDERFGSYCPTTCGIADFLSTYQTKVDKDLQSLEDILHQVENKTSEVKQLIKAIQLTYNPDESSKPNMIDAATLKSRKMLEEIMKYEASILTHDSSIRYLQEIYNSNNQKIVNLKEKVAQLEAQCQEPCKDTVQIHDITGKDCQDIANKGAKQSGLYFIKPLKANQQFLVYCEIDGSGNGWTVFQKRLDGSVDFKKNWIQYKEGFGHLSPTGTTEFWLGNEKIHLISTQSAIPYALRVELEDWNGRTSTADYAMFKVGPEADKYRLTYAYFAGGDAGDAFDGFDFGDDPSDKFFTSHNGMQFSTWDNDNDKFEGNCAEQDGSGWWMNKCHAGHLNGVYYQGGTYSKASTPNGYDNGIIWATWKTRWYSMKKTTMKIIPFNRLTIGEGQQHHLGGAKQAGDV
notes: Soluble plasma fibrinogen flowed over the Biacore chip; also called free fibrinogen

Legend:
GPIb on human platelets [1] = target: T1, GPIb on human platelets (human, UniProt P07359 17-652; P13224 26-206); test: conclusion from inhibition of vWf binding to platelets, flow cytometry
T1 construct: whole, on cells; also called platelet GPIb

GPIb on human platelets [2] = target: T1, GPIb on human platelets; test: cell-based or functional assay
GPIb on human platelets [3] = target: T1, GPIb on human platelets; test: inhibition of vWf binding to platelets in PRP, flow cytometry (FITC anti-human vWf)
Procedure: In order to prepare human platelets for testing, as approved by Canadian Blood Services' Ethics Board, samples of whole blood were drawn from healthy, consenting donors into 2.7-4.0 mL citrated tubes (BD, USA). Platelet rich plasma (PRP) was prepared from whole blood by centrifugation in a Beckman (CS-6R) bench-top centrifuge (r=203.57 mm, Beckman Coulter, USA) 164×g for 15 minutes. PRP from a number of unrelated donors were evaluated on an Adiva 120 Hematology Analyzer (Bayer, Canada) and standardized to a concentration of 300×10⁹ platelets/L in HEPES buffered saline (HBS, 10 mM HEPES, 150 mM NaCl, pH 7.4).
Thereafter the samples were diluted and fixed with 1.0 mL 0.2% formolsaline (0.2% formaldehyde, 150 mM NaCl, pH 7.20) before analysis on a FACS Canto flow cytometer (BD, USA).

fibrinogen = target: B1; test: SPR (Biacore), peptide-PEG-biotin on streptavidin chip, fibrinogen in flow, Langmuir analysis
From the text: In this case, peptides known to interfere with fibrinogen-GPIIbIIIa interaction were synthesized, and coupled to the end of a long (3400 MW) PEG molecule whose other end was attached to biotin, as illustrated schematically in FIG. 7. As is known in the art, fibrinogen is a soluble protein in the blood plasma essential for clotting of blood which the enzyme thrombin converts into the insoluble protein fibrin. As shown schematically in FIG. 7, the biotin molecule was used to tether down the peptide-PEG onto a streptavidin-modified Biacore chip. This allowed the GPIIbIIIa mimicking peptide to be hanging off the free end of the PEG.
By allowing free fibrinogen to flow past the peptide, the binding kinetics (i.e., the “on/off rate”) between fibrinogen and the peptides were measured. Then, the fibrinogen was released from the peptide. Using several fibrinogen concentrations, it was possible to measure the KD of the binding interaction between the peptide and the fibrinogen.

[4] = target: von Willebrand factor (vWf) (human) (UniProt P04275); test: cell-based or functional assay
wild-type GPIIbIIIa = target: T2, wild-type GPIIbIIIa (UniProt P08514 32-1039; P05106 27-788, limits assumed); test: not stated (comparison value given with the SPR results)
T2 construct: also called wild-type GPIIaIIIb (so in the source); integrin alphaIIbbeta3

Row | Binder | Aggregometry % Aggregation on Activation (GPIb on human platelets [2]) | Peptide Concentration at Ic50 (GPIb on human platelets [3]) | other results
1 | SHAYIGLKDR [SHAYIGLKDR (SEQ ID NO:8)] | – | – | binding result (GPIb on human platelets [1]): binds
2 | CGGGGGGSHAYIGLKDR (L-amino acids; free peptide) [L-CGGGGGGSHAYIGLKDR (L-peptide)] | 5% | 48 µM | IC50 (GPIb on human platelets [3]): 48 µM
3 | APLHK (also: coupled to PEG 3400 carrying biotin, coupled end not given here, also called A-peptide 1) [GPIIbIIIa mimotope peptide 1 (APLHK)] | – | – | Kd (fibrinogen): 12.5 µM
4 | CGGGGGGSHAYIGLKDR (other, also: coupled via vinyl sulfone to 500 kDa hyperbranched polyglycerol (HPG), about 100 peptides per HPG) [L100 (HPG conjugate with 100 L-peptides per HPG)] | 5% | – | –
5 | EHIPA (also: coupled to PEG 3400 carrying biotin, coupled end not given here, also called B-peptide 2) [GPIIbIIIa mimotope peptide 2 (EHIPA)] | – | – | Kd (fibrinogen): 0.334 µM
6 | [dR][dS][dA][dR][dM][dQ][dV][dC][dW][dN][dA][dF][dK][dN][dR] [D-pep3 (…)] | – | – | % agglutination of washed platelets at 10 minutes, ristocetin, aggregometry, 0.1 mg/mL D-pep3 (buffer 66%, BSA 55%) [4]: 69%; % agglutination of washed platelets at 10 minutes, ristocetin, aggregometry, 0.25 mg/mL D-pep3 (buffer 66%, BSA 55%) [4]: 28%; % agglutination of washed platelets at 10 minutes, ristocetin, aggregometry, 0.5 mg/mL D-pep3 (buffer 66%, BSA 55%) [4]: 13%
7 | [dC]GGGGGG[dR][dD][dK][dL]G[dI][dY][dA][dH][dS] (not fully specified) [D-… (D-retro peptide; SEQ ID NO:12)] | 78% | – | –
8 | CGGGGGGRDKLGIYAHS (other, also: coupled via vinyl sulfone to 500 kDa hyperbranched polyglycerol (HPG), about 100 peptides per HPG, Peptide-polymer conjugate) [LR100 (HPG conjugate with 100 L-retro peptides per HPG)] | 5% | 22 µM | –
9 | CGGGGGGSHAYIGLKDR (other, also: coupled through vinyl sulfone to 500 kDa hyperbranched polyglycerol, about 10 peptides per HPG) [L10 (HPG conjugate with 10 L-peptides per HPG)] | 5% | – | –
10 | B1 | – | – | Kd (wild-type GPIIbIIIa): 0.103 µM
11 | CGGGGGGRDKLGIYAHS (Linker CGGGGGG followed by the reversed mimotope; L-amino acids; free peptide; also called LR-pep; LR-peptide) [L-CGGGGGGRDKLGIYAHS (L-retro peptide)] | 5% | 34 µM | IC50 (GPIb on human platelets [3]): 34 µM
12 | CGGGGGGRDKLGIYAHS (other, also: coupled through vinyl sulfone to 500 kDa hyperbranched polyglycerol, about 10 peptides per HPG, Peptide-polymer conjugate) [LR10 (HPG conjugate with 10 L-retro peptides per HPG)] | 5% | 41 µM | –

Source: patent publication US20100075908A1 (published 2010)
